Test results reported in PMC5715124.

Biological target: mCherry-LacR-CSB-ATPase
Experiment: immunofluorescence co-localisation at the lac operator array (mCherry-LacR tethering) in U2OS-265 cells
Conditions: 250 Myc-expressing cells scored per experiment; three independent experiments; parent: est. 28; read off a plot

Substance	response
Myc-CSB-N S10A	21 % of cells
Myc-CSB-N S10A; S158A	17 % of cells
Myc-CSB-N S10D	32 % of cells
Myc-CSB-N S10D; S158D	30 % of cells
Myc-CSB-N S158A	18 % of cells
Myc-CSB-N S158D	28 % of cells
